Measurements reported in paper PMC6879718, “Mycobacterial OtsA Structures Unveil Substrate Preference Mechanism and Allosteric Regulation by 2-Oxoglutarate and 2-Phosphoglycerate” (mBio, 2019).
One block for each molecule: values may come before it.

Assays:
Assay type in all cases: biochemical, Mycobacterium thermoresistibile
[1] = molecular target: T1, M. thermoresistibile OtsA wild type (Mycolicibacterium thermoresistibile, UniProt G7CGT2); assay: OtsA kinetic parameters, continuous colorimetric coupled assay (wild type); conditions: ADP-glucose as the donor substrate
[2] = tested on: Nc1nc2c(ncn2[C@@H]2O[C@H](COP(=O)(O)OP(=O)(O)O[C@H]3O[C@H](CO)[C@@H](O)[C@H](O)[C@H]3O)[C@@H](O)[C@H]2O)c(=O)[nH]1; assay: OtsA kinetic parameters, continuous colorimetric coupled assay (L319I, V363F, E367L); conditions: other: L319I, G6P fixed at 10 mM for NDP-glucose, ADP-glucose […] for G6P, pH 7.5, 37.0 °C
[3] = tested on: Nc1ncnc2c1ncn2[C@@H]1O[C@H](COP(=O)(O)OP(=O)(O)O[C@H]2O[C@H](CO)[C@@H](O)[C@H](O)[C@H]2O)[C@@H](O)[C@H]1O; assay: as above; conditions: other: L319I, G6P fixed at 10 mM for NDP-glucose, ADP-glucose […] for G6P, pH 7.5, 37.0 °C
[4] = tested on: O=C[C@H](O)[C@@H](O)[C@H](O)[C@H](O)COP(=O)(O)O; assay: as above; conditions: other: L319I, G6P fixed at 10 mM for NDP-glucose, ADP-glucose […] for G6P, pH 7.5, 37.0 °C
[5] = tested on: Nc1nc2c(ncn2[C@@H]2O[C@H](COP(=O)(O)OP(=O)(O)O[C@H]3O[C@H](CO)[C@@H](O)[C@H](O)[C@H]3O)[C@@H](O)[C@H]2O)c(=O)[nH]1; assay: OtsA kinetic parameters, continuous colorimetric coupled assay (L319I); conditions: other: L319I; G6P fixed at 10 mM for NDP-glucose, ADP-glucose […] for G6P; pH 7.5; 37.0 °C
[6] = tested on: Nc1ncnc2c1ncn2[C@@H]1O[C@H](COP(=O)(O)OP(=O)(O)O[C@H]2O[C@H](CO)[C@@H](O)[C@H](O)[C@H]2O)[C@@H](O)[C@H]1O; assay: as above; conditions: other: L319I; G6P fixed at 10 mM for NDP-glucose, ADP-glucose […] for G6P; pH 7.5; 37.0 °C
[7] = tested on: O=C[C@H](O)[C@@H](O)[C@H](O)[C@H](O)COP(=O)(O)O; assay: as above; conditions: other: L319I; G6P fixed at 10 mM for NDP-glucose, ADP-glucose […] for G6P; pH 7.5; 37.0 °C
[8] = tested on: Nc1nc2c(ncn2[C@@H]2O[C@H](COP(=O)(O)OP(=O)(O)O[C@H]3O[C@H](CO)[C@@H](O)[C@H](O)[C@H]3O)[C@@H](O)[C@H]2O)c(=O)[nH]1; assay: OtsA kinetic parameters, continuous colorimetric coupled assay (L319I, E367L); conditions: other: L319I, G6P fixed at 10 mM for NDP-glucose, ADP-glucose […] for G6P, pH 7.5, 37.0 °C
[9] = tested on: Nc1ncnc2c1ncn2[C@@H]1O[C@H](COP(=O)(O)OP(=O)(O)O[C@H]2O[C@H](CO)[C@@H](O)[C@H](O)[C@H]2O)[C@@H](O)[C@H]1O; assay: as above; conditions: other: L319I, G6P fixed at 10 mM for NDP-glucose, ADP-glucose […] for G6P, pH 7.5, 37.0 °C
[10] = tested on: O=C[C@H](O)[C@@H](O)[C@H](O)[C@H](O)COP(=O)(O)O; assay: as above; conditions: other: L319I, G6P fixed at 10 mM for NDP-glucose, ADP-glucose […] for G6P, pH 7.5, 37.0 °C
[11] = molecular target: T1, M. thermoresistibile OtsA wild type; assay: Effect of feedback inhibitors and allosteric regulators on OtsA activity (wild type)
[12] = tested on: Nc1ncnc2c1ncn2[C@@H]1O[C@H](COP(=O)(O)OP(=O)(O)O[C@H]2O[C@H](CO)[C@@H](O)[C@H](O)[C@H]2O)[C@@H](O)[C@H]1O; assay: OtsA kinetic parameters, continuous colorimetric coupled assay (R213E); conditions: other: R213E; G6P fixed at 10 mM for NDP-glucose, ADP-glucose […] for G6P; pH 7.5; 37.0 °C
Method: (§1) Formation of T6P was assessed by a continuous colorimetric assay that followed the release of NDP by measuring the oxidation of NADH at 340 nm, in the presence of pyruvate kinase and lactate dehydrogenase. All reagents used were obtained from Sigma-Aldrich. The enzymatic reactions (200-μl reaction mixture) were performed at 37°C, and the reaction mixtures contained 50 mM Tris (pH 7.5), 200 mM NaCl, 10 mM MgCl2, 50 mM KCl, 0.3 mM NADH, 2.5 mM phosphoenolpyruvate (PEP), 10 units of pyruvate kinase-lactate dehydrogenase, 0.1 μM enzyme, and various concentrations of G6P and NDP-glucose to determine kinetic parameters.

[13] = tested on: O=C[C@H](O)[C@@H](O)[C@H](O)[C@H](O)COP(=O)(O)O; assay: as above; conditions: other: R213E; G6P fixed at 10 mM for NDP-glucose, ADP-glucose […] for G6P; pH 7.5; 37.0 °C
Method: as §1

[14] = tested on: Nc1ncnc2c1ncn2[C@@H]1O[C@H](COP(=O)(O)OP(=O)(O)O[C@H]2O[C@H](CO)[C@@H](O)[C@H](O)[C@H]2O)[C@@H](O)[C@H]1O; assay: OtsA kinetic parameters, continuous colorimetric coupled assay (R384E); conditions: other: R384E; G6P fixed at 10 mM for NDP-glucose, ADP-glucose […] for G6P; pH 7.5; 37.0 °C
Method: as §1

[15] = tested on: O=C[C@H](O)[C@@H](O)[C@H](O)[C@H](O)COP(=O)(O)O; assay: as above; conditions: other: R384E; G6P fixed at 10 mM for NDP-glucose, ADP-glucose […] for G6P; pH 7.5; 37.0 °C
Method: as §1

Molecule: O=C[C@H](O)[C@@H](O)[C@H](O)[C@H](O)COP(=O)(O)O [Glucose-6-phosphate, glucose-6-phosphate]
- use as acceptor substrate [1]: the only acceptor

Molecule: M. thermoresistibile OtsA L319I, V363F, E367L (Mycolicibacterium thermoresistibile ATCC 19527; E367L/L319I/V363F)
- Km [2]: 900 ± 60 µM
- kcat [2]: 16 ± 1 s⁻¹
- kcat/Km [2]: 18000 ± 2000 M⁻¹ s⁻¹
- Km [3]: 1300 ± 100 µM
- kcat [3]: 19 ± 1 s⁻¹
- kcat/Km [3]: 15000 ± 2000 M⁻¹ s⁻¹
- Km [4]: 3200 ± 200 µM
- kcat [4]: 17 ± 1 s⁻¹
- kcat/Km [4]: 5300 ± 600 M⁻¹ s⁻¹

Molecule: M. thermoresistibile OtsA L319I (Mycolicibacterium thermoresistibile ATCC 19527; L319I)
- Km [5]: 350 ± 40 µM
- kcat [5]: 3.1 ± 0.1 s⁻¹
- kcat/Km [5]: 8900 ± 1400 M⁻¹ s⁻¹
- Km [6]: 710 ± 180 µM
- kcat [6]: 8.4 ± 0.7 s⁻¹
- kcat/Km [6]: 12000 ± 2000 M⁻¹ s⁻¹
- Km [7]: 3300 ± 200 µM
- kcat [7]: 6.4 ± 0.2 s⁻¹
- kcat/Km [7]: 1900 ± 200 M⁻¹ s⁻¹

Molecule: M. thermoresistibile OtsA L319I, E367L (Mycolicibacterium thermoresistibile ATCC 19527; E367L/L319I)
- Km [8]: 700 ± 50 µM
- kcat [8]: 9.2 ± 0.4 s⁻¹
- kcat/Km [8]: 13000 ± 2000 M⁻¹ s⁻¹
- Km [9]: 630 ± 40 µM
- kcat [9]: 14 ± 1 s⁻¹
- kcat/Km [9]: 22000 ± 3000 M⁻¹ s⁻¹
- Km [10]: 3700 ± 200 µM
- kcat [10]: 21 ± 1 s⁻¹
- kcat/Km [10]: 5700 ± 500 M⁻¹ s⁻¹

- IC50 [11]: ~24 mM
Molecule: OC[C@H]1O[C@H](O[C@H]2O[C@H](CO)[C@@H](O)[C@H](O)[C@H]2O)[C@H](O)[C@@H](O)[C@@H]1O [Trehalose]

Molecule: M. thermoresistibile OtsA R213E (Mycolicibacterium thermoresistibile ATCC 19527; R213E)
- Km [12]: 310 ± 10 µM
- kcat [12]: 56 ± 2 s⁻¹
- kcat/Km [12]: 180000 ± 13000 M⁻¹ s⁻¹
- Km [13]: 3300 ± 300 µM
- kcat [13]: 33 ± 2 s⁻¹
- kcat/Km [13]: 10000 ± 1000 M⁻¹ s⁻¹

Molecule: M. thermoresistibile OtsA R384E (Mycolicibacterium thermoresistibile ATCC 19527; R384E)
- Km [14]: 1900 ± 200 µM
- kcat [14]: 3.2 ± 0.1 s⁻¹
- kcat/Km [14]: 1700 ± 200 M⁻¹ s⁻¹
- Km [15]: 2900 ± 200 µM
- kcat [15]: 2.1 ± 0.2 s⁻¹
- kcat/Km [15]: 770 ± 50 M⁻¹ s⁻¹
